Measurements taken from patent US8613927B2, “High affinity human antibodies to human nerve growth factor” (Regeneron Pharmaceuticals, Inc., priority 2007, dated 2013).

Columns and labels:
[1] = molecular target: Human NGF binding to human TrkA-hFc (Homo sapiens, UniProt P01138, DEL136-138/DEL208-209); experiment: BIACORE receptor blocking assay, free NGF bound to TrkA-hFc; conditions: percentage free NGF bound; NGF 10-25 nM with molar excess of antibody; NGF alone = 100%
Source text: To identify blocking antibodies, a receptor blocking assay was designed using a BIACORE™ 3000 instrument. Recombinant human TrkA-hFc and human p75-hFc proteins were amine-coupled to a CM5 chip to a density of about 5000-6000 RU.

rat NGF (rNGF) = rat NGF (rNGF) (Rattus norvegicus, UniProt P25427); experiment: BIACORE binding affinity to rat NGF
rat NGF (rNGF), sequence (P25427 122-241): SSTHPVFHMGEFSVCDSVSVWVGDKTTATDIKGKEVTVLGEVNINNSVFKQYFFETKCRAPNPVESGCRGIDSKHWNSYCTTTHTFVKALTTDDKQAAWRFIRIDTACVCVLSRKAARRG
Protocol: Antigen binding affinities of the antibodies for human NGF were determined by surface kinetics using a real-time biosensor surface plasmon resonance assay (BIACORE™). Antibodies were captured on either a goat, anti-human or anti-mouse IgG polyclonal antibody surface created by direct amine coupling of the capture antibody to a BIACORE™ chip. Various concentrations of human NGF were injected over the captured antibody surfaces while the association of the antigen to the antibody and the dissociation of the bound complex were monitored in real time. Kinetic analysis was performed to obtain the equilibrium dissociation constant (KD) and dissociation rate constant, and the latter was used to calculate the antigen/antibody complex dissociation t1/2 (Table 1).
Human NGF (NGF) is highly homologous in amino acid sequence to mouse NGF (mNGF) and rat NGF (rNGF) with about 90% identity. The binding affinities of the antibodies to both mNGF and rNGF were determined as described above.
The binding affinity of selected purified anti-NGF antibodies to mNGF and rNGF were also determined (Table 6).

Human NGF binding to human TrkA-hFc, sequence (P01138 with tags, fused parts or gaps DEL136-138/DEL208-209): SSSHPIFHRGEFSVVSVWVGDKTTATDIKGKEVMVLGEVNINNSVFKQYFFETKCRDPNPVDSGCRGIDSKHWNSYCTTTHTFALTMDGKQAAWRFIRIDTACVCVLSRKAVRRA

In the case of tanezumab [RN624], the “% Binding TrkA-hFc” value [1] is reported as 10%, the Kd (rat NGF (rNGF); Table 5) is reported as 1.5 pM and the Kd (rat NGF (rNGF); Table 6, selected purified antibodies) is reported as 1.51 pM.
